Test results published in patent publication US20250270295A1 (ALBERT LUDWIGS UNIVERSITAET FREIBURG, published 2025).

Assays:
[1] = target: T1, soluble human ICOSL ectodomain, V5-His tagged (sICOSL-V5His) (human, UniProt O75144 19-256); assay: western blot
T1 construct: extracellular domain; Control protein with the same tags as the vFcγRs
T1 sequence: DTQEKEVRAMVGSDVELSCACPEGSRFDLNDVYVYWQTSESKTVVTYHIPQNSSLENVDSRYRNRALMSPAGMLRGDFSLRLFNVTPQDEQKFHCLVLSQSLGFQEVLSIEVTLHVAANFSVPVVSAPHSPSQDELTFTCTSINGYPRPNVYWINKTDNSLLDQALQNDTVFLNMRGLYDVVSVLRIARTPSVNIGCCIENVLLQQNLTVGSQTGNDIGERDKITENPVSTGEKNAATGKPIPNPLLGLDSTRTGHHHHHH

[2] = target: T2, soluble gp34 wild type ectodomain, V5-His tagged (sgp34wt-V5-His) (HCMV strain AD169); assay: blocking of sgp34wt binding to immobilized human IgG, ELISA
T2 construct: Entry holds signal peptide 1-23 (left out), ectodomain, V5 tag and His tag; Forms monomers, dimers and higher oligomers; also called sol gp34 wt; gp34 1-179
T2 chain: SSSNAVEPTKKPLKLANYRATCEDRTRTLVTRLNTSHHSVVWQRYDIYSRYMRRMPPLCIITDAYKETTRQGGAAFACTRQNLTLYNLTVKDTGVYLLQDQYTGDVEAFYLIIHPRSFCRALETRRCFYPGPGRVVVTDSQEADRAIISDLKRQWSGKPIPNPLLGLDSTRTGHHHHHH
Experimental: FIG. 44: IgG blocking ability by anti-gp34mtrp mAbs. vFcγR gp34 is an HCMV encoded IgG-Fc-binding. Anti-gp34mtrp-specific mAbs (in titration) were pre-incubated with recombinant, sgp34wt (constant amount 1 μg/ml) and added to IgG-immobilized ELISA plates. […] Dose-dependent potential of mAbs used for blocking is indicated. Effect by non-specific mouse IgG isotype IgG1 is shown. In addition, binding of sgp34wt to immobilized IgG in absence of any mAb is depicted.
To test if anti-gp34wt specific mAbs can interfere with IgG-binding ability of gp34 and human IgG. Therefore, recombinant, sgp34wt was pre-incubated with indicated anti-gp34wt specific mAbs, mouse IgG isotype or PBS only. Next, antibody bound sgp34wt was incubated on IgG-immobilized ELISA plates.
Anti-gp34wt-specific mAbs (in titration) were pre-incubated with recombinant, sgp34wt (constant amount 1 μg/ml) and added to IgG-immobilized ELISA plates. […] Dose-dependent potential of mAbs used for blocking is indicated. […] In addition, binding of sgp34wt to immobilized IgG in absence of any mAb is depicted.

[3] = target: T3, soluble gp34 ectodomain W65F, V5-His tagged (sgp34mtrp-V5-His) (HCMV strain AD169); assay: ELISA mtrp
T3 construct: signal peptide 1-23 left out; V5 and His tags are in the entry; Forms only monomers and dimers; also called sol gp34mtrp; gp34 1-179 W65F
T3 chain: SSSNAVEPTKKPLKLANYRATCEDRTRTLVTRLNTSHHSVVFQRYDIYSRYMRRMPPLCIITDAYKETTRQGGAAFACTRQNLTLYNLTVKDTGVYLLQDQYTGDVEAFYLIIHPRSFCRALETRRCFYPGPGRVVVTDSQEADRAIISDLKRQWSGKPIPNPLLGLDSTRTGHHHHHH

[4] = target: T4, gp34mtrp (W65F) on stably transduced HeLa cells (HCMV strain AD169, UniProt P16809 24-234); assay: flow cytometry, HeLa
T4 construct: whole, on cells; also called plasma membrane exposed gp34mtrp
T4 sequence: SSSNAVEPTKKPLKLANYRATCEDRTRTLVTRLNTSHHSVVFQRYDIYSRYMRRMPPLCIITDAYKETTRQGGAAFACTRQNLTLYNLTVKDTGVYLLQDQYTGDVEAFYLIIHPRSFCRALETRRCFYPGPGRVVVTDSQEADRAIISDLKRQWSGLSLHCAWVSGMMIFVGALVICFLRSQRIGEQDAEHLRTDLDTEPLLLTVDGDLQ

[5] = target: T5, gp34wt on stably transduced HeLa cells (HCMV strain AD169, UniProt P16809 24-234); assay: flow cytometry, HeLa, 1 µg/ml
T5 construct: whole, on cells; also called plasma membrane exposed gp34wt
T5 sequence: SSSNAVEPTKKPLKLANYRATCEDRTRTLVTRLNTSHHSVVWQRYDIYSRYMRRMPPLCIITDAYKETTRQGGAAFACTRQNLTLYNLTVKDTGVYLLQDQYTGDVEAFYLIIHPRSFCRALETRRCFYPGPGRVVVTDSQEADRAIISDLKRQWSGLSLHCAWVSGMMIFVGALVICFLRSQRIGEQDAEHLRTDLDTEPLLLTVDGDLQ

B1: gp34wt.13 (antibody, V domains shown)
VH: EVQLVESGPELKKPGETVKISCKASGYAFTNYGMNWVKQTPGKGLKWMGWINTYTGKPTYADDFKGRFAFSLETSASSAYLQINNLKNEDTATYFCARRRGNSFDYWGQGTTLTVSS
VL: DIVLTQSPSSLTVTAGEKVTMSCKSSQSLLNSGNQENCLTWYQQKPGQPPRLLIYWASTRESGVPDRFTGSGSGTDFTLTISSVQAEDLAVYYCQNDYTYPLTFGAGTKLELK
notes: mouse IgG2a hybridoma mAb; leader in entries; also called anti gp34 clone wt.13
B1: no binding [1].

B2: gp34wt.14 (antibody, V domains shown)
VH: QVKLLQSGPELKKPGETVKISCKASGYAFTNYGMNWVKQTPGKGLKWMGWINTYTGKPTYADDFKGRFAFSLETSASSAYLQINNLKNEDTATYFCARRRGNSFDYWGQGTTLTVSS
VL: DIVITQSPSSLTVTAGEKVTMSCKSSQSLLNSGNQENCLTWYQQKPGQPPRLLIYWASTRESGVPDRFTGSGSGTDFTLTISSVQAEDLAVYYCQNDYTYPLTFGAGTKLELK
notes: mouse IgG2a hybridoma mAb; leader in entries; also called anti gp34 clone wt.14
B2: no binding [1].

B3: gp34wt.07 (antibody, V domains shown)
VH: QVKLEESGPELVKTGASVKISCKASGYSFTSYQIYWVKQSHGKSLEWIGHISCYNGATSYNQKFKDKATFTVDTSSSTAYMQFNSLTSEDSAVYFCARYDYAPDYYAMDYWGQGTSVTVSS
VL: DIVLTQTPASLAVSLGQRATISCRASESVDSYGNSFMHWYQQKPGQPPKLLIYLASNLESGVPARFSGSGSRTDFTLTIDPVEAEDAAIYYCQQNNEDPLTFGGGTKLELK
notes: mouse IgG1 hybridoma mAb; leader in entries; also called anti gp34 clone wt.07
In the case of B3, the IC50 [2] is reported as 0.447 µg/mL, the binding result [3] is reported as “no binding” and the binding result [4] is reported as “no binding (tested: 1 µg/ml)”. B3: no binding [1].

B4: gp34wt.08 (antibody, V domains shown)
VH: EVQLEQSGPELVKTGASVKISCKASGYSFTSYQIYWVKQSHGKSLEWIGHISCYNGATSYNQKFKDKATFTVDTSSSTAYMQFNSLTSEDSAVYFCARYDYAPDYYAMDYWGQGTSVTVSS
VL: DIVMTQTPASLAVSLGQRATISCRASESVDSYGNSFMHWYQQKPGQPPKLLIYLASNLESGVPARFSGSGSRTDFTLTIDPVEAEDAAIYYCQQNNEDPLTFGGGTKLELK
notes: mouse IgG1 hybridoma mAb; leader in entries; also called anti gp34 clone wt.08
In the case of B4, the IC50 [2] is reported as 0.494 µg/mL, the binding result [3] is reported as “no binding” and the binding result [4] is reported as “no binding (tested: 1 µg/ml)”. B4: no binding [1].

B5: gp34wt.09 (antibody, V domains shown)
VH: EVQLEQSGPELVKPGASVKMSCKASGYTFTRPYIHWVKQRPGQGLEWIGWIYPGDGITKYNEKFKGKITLTADKSSSAAYMLLSSLTSEDSAIYFCASFTTPVYWGQGTSVTVSS
VL: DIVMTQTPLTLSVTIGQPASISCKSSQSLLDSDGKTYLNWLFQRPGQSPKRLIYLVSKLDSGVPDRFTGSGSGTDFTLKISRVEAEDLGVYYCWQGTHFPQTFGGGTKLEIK
notes: mouse IgG1 hybridoma mAb; leader in entries; also called anti gp34 clone wt.09
In the case of B5, the binding result [5] is reported as “binds”, the IC50 [2] is reported as 0.063 µg/mL and the binding result [3] is reported as “no binding”. B5: no binding (tested: 1 µg/ml) [4]; no binding [1].

B6: gp34wt.11 (antibody, V domains shown)
VH: QVQLEESGPELVKPGASVKMSCKASGYTVTRSYIHWVKQRPGQGLEWIGWIYPGDGSTKYNEKFKGKTTLTVDKSSSTAYMLLSSLTSEDSAIYFCASFTTPVYWGQGTSVTVSS
VL: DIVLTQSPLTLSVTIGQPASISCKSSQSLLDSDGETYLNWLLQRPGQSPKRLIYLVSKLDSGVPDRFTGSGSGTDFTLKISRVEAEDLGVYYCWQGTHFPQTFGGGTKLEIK
notes: mouse IgG1 hybridoma mAb; leader in entries; also called anti gp34 clone wt.11
In the case of B6, the binding result [5] is reported as “binds”, the IC50 [2] is reported as 0.077 µg/mL and the binding result [3] is reported as “no binding”. B6: no binding (tested: 1 µg/ml) [4]; no binding [1].

B7: gp34wt.10 (antibody, V domains shown)
VH: EVKLEQSGPELVKPGASVKMSCKASGYTFTRPYIHWVKQRPGQGLEWIGWIYPGDGITKYNEKFKGKITLTADKSSSAAYMLLSSLTSEDSAIYFCASFTTPVYWGQGTSVTVSS
VL: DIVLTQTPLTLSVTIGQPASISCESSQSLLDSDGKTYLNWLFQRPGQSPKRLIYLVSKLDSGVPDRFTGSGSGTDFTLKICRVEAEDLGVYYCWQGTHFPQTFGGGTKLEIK
notes: mouse IgG1 hybridoma mAb; leader in entries; also called anti gp34 clone wt.10
B7 was tested, and the binding result [5] was “binds”, the IC50 [2] was 0.089 µg/mL and the binding result [3] was “no binding”. B7: no binding (tested: 1 µg/ml) [4]; no binding [1].

B8: gp34wt.15 (antibody, V domains shown)
VH: QVKLQQSGPELVKPGASVKMSCKASGYTFRSYYIHWVKQRPGQGLEWIGWNNPGDGTAKYNEKFKGKTTLTADKSSSTAYMLLSSLTSEDSAIYFCASFNTPDYWGQGTSVTVSS
VL: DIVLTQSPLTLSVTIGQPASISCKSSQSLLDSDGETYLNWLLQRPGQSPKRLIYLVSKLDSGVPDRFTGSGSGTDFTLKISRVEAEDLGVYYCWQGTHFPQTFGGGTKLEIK
notes: mouse IgG1 hybridoma mAb; leader in entries; also called anti gp34 clone wt.15
For B8, the binding result [5] was “binds”, the IC50 [2] was 0.12 µg/mL and the binding result [4] was “no binding (tested: 1 µg/ml)”. B8: no binding [1].
